Tests used:
[1] = molecular target: wild-type full-length HIV-1 BaL envelope glycoprotein gp160 expressed on the surface of HeLa cells (untreated) (HIV-1 BaL)
[2] = molecular target: BaL Pro 2.0 (HIV-1 BaL gp160 with a proline inserted between Tyr 173 and Ala 174) on HeLa cells (HIV-1 BaL)
[3] = molecular target: ΔV1V2
[4] = molecular target: native HIV-1 BaL envelope trimers on the surface of persistently infected human T cells (PM1) (HIV-1 BaL); assay: flow cytometry on infected PM1 cells pre-incubated with sCD4 5 µg/ml (competitor, two-domain by the panel header) before PG9
[5] = molecular target: native HIV-1 BaL envelope trimers on the surface of persistently infected human T cells (PM1) (HIV-1 BaL); assay: flow cytometry on infected PM1 cells pre-incubated with control buffer, PE anti-human IgG; panel header 'PM1 HT-pg9 25'
[6] = molecular target: native HIV-1 BaL envelope trimers on the surface of persistently infected human T cells (PM1) (HIV-1 BaL)

Row | Substance | Geom. Mean, Comp-PE-A [1] | Geom. Mean, Comp-PE-A [2] | Geom. Mean, Comp-PE-A [3] | change of the MFI with sCD4 [4] | Mean fluorescence intensity (MFI) [5] | MFI [6]
1 | NC human | 139 | 129 | 152 |  |  | 
2 | antibody 48d (CD4-induced epitope) | 484 | 244 | 240 |  |  | 
3 | monoclonal antibody PG9 (directed to the α-helix-containing region of V2; trimer-preferring) |  |  |  | -58% | 5210 | 2220
